# Assay results as given in the DeepSol protein solubility set.
# Assay: soluble on expression in E. coli; label from the status in PepcDB or PDB records
row,Sequence,soluble on expression in E. coli
1,MGSDKIHHHHHHMNYPQEKIKPYSNDGKKSEQVEQMFDNIAPAYDQLNHTLSLGIDRSWRRKAINWLKPFRPQQIMDVATGTGDFAILACHELQPEQLIGTDISEGMMNVGREKVKKEGLSEKISFAREDCTSLSFADNRFDAITVAFGIRNFEDLDKGLSEMYRVLKTGGHLVILELTTPDRFPMKQMFTIYSKIVIPTLGKLLSKDNSAYSYLPQTIKAFPQGEVMKNVISRVGFSQVQFRRLTFGICTLYTATK,not soluble
2,MGSDKIHHHHHHMPAIAFIDISGSPFQAGQALGRFGASAVRDHLLHTDAWRSVMRWRGTEQAALMAAQVQARFPRIWDELKGLADGLGLPLEDTFLWNCRGDVWAMSPDGCTTVQVPGAHRRRISHNEDGDPGFSGHCAIAQCHIAGSPGFASFVYPGSLPGHTFAATELGLAMTVNNLRYRNTTAGVPRMVLTRAVLDAPDLDKALAVLRDNPHAGGFHLTLGHCRSTALLSVEFSAYGCSVLDITQTSMHANHAIHPQMRDHPQIVTGSSGHRQMRGDTVIADAARDGREIDPLELLADTAHPSFPIYRDDPHDSDGENTQATADMRVGPTCIEWEVYEQPGTAPRYRMINGHTREEDATDAGARPDVQSRH,not soluble
3,MGSDKIHHHHHHMPFDDIQCSPLLVRDGTDNIMQVLSDTDKPTASAQRDMPQEFLPPRCTFSAEDWRILARQWYPVARSVDVKSSPVAVTLLDLELVTYRTPAGVHVARDLCPHRGVPLSMGCVEGDELVCAYHGLRYAADGQCRKIPAQPELKPSAKFRLTVFPAVERYGLVWTCLNPQGGEANLPPMPSWGDPLCQSILPPFVDIAGSAGRQVEGFVDVAHFAFVHHDAFADRNRPEVPMYQTEFTDFGLRTEYWSNVSNYPKALQHLAPDDFSWLRVYEIYPPFCARLTVHFPNEGRLNILNAASPVSARKTRLFVPITRNFDTTGSLDDVYAFNAQIFAEDQAIVERQRPEDLPLDMQAEAHFAADRTSVGYRRLLREMGLTMAYAG,not soluble
4,MGSDKIHHHHHHMPFKAKDQQGNIVLATDFKSVLEIRKNFPKGSLFCPFCQTLMFPRKRQNTSLHFVHTHPCTTVMEHHPESPEHLQGKLEISKYFQEVYKGMIDAQEAFIEIEHPISEAGKNGRIADVAVVFSTGYRIIGECQLAKIEAADIYQRTQDYYSISADVLWFLGGAADTPENRQAAVDLDVFAGTINFTYST,not soluble
5,MGSDKIHHHHHHMPFLLFKFPGKRVLGFSFEGRPHRHATGLSRFLDVHGAAYACELGRLSSELVGASEGALLKRLESLYDEILIDEVQDLSAHDWEIVDALLHSSIHIRMVGDIRQSVLATNPRSTKNKQYAYAETVKWFREREQLGRLAIRESVETWRCHPKIAAFSDTIFDASWAFPSTVSRNDAMTDHDGVFLLTKKHVRDYVERFAPQCLRSMAGSGKEFNLDFMNFKVAKGSTFERVLIMPTAGITDFVRKGSSLEPVPAASFYVAVTRAAQSVAMVIDNAGASTLPYWTP,not soluble
6,MGSDKIHHHHHHMPFRRPCAINRPPLTSGCQGHPLSSRRAAQGPGGFFYRHKDMAMTQKRALGLDFGTTNTVMALSDTGSASHSMRFTSSAGTDDSMRTALSFMKDAGLGAAALHVEAGQAAIRQFIDNAGDCRFLQSIKTFAASPLFQGTLIFAKRQSFEDLMEVFLRKLKTYAGSEWPGDVSTVIAGRPVRFAGSNPDETLALARYNEALTRAGFPEIHYVYEPVAAAYYFAQSLKKDANVLVADFGGGTTDYSLIRFETHAGKLSATPIGHSGVGVAGDHFDFRMIDNLVSPEIGKGSKFKSFDKVLDVPSGYYVNFGRWNQLSIFKTSKEFTDLKSLVRSALEPDKLELFIDLVEHDEGYPLYQAISATKMALSSAQEAEFNFSPLGKAGRKMVKRSDFNNWIADDLAKIEGALDEVLEKTKVAPEAIDKVFLTGGTSFVPAVRELFTRRFDADRIESGGELLSIAHGLAMIGESGDIQRWTA,not soluble
7,MGSDKIHHHHHHMPKLIIDADDFGLSKAINHGIIESYKTGITTSTLLMPNLETAEHAIALAKNHPDLFIGQHTNFLLGKPCANPAEIPSLVDENGEFHRSKYYRANPELKFQYEDVRTETIAQMERFKALTGHYPEHIDCHSIGDETVDQAFFDIAREFGIHTTLKYSGDKKWSDQEGYLPITKLLESGALPYTNGGVSVENFLNDDFGLLKLAPNEIAEMHFDVGFLDQFVLDNSSYTLMRCRELATICDVRVRDWLLENGFELITFGDLQR,not soluble
8,MGSDKIHHHHHHMPKNLYNYQEFIRLSHEGKIAFEQIDVPKNASLLTEKIDIDNHIYLVVDGYIALILNDGSQNPKIYSIQGKGTFLNYFTLLDRSNNHFNFKTLSGCSLYKYSKADMEYFLSMFPENFGFQFFIMKNQTTHIYFKSLMASSPASEKLKTTFSNMALLHGVLSDDDTVILPQAIKTSHLLSYSNLSKSCFYKDLQHLKTTNQIEKKEKSWIIHDQELYAMIQNGQTSF,not soluble
9,MGSDKIHHHHHHMPKRFEWLFYAFIAFALYSCNGSSRGKGTEVETVSIDTADFNFPVRFEYAKGIQTVNHTGYKTVYIFHPDKPDTMAVYILYPRDSKRPVARHPKALYIPVPARTIACLSTTQIGSLPLLDQTDKLVGCINLKNICNADIRNRIKKGYVQEIGTGMTKNIEQIAGLRPEILLQDLFHVSDKDEELIASGINTVLYNEWKERDLLGRAEWMKLTAMLLSCNRRAHEVFEQIESEYAEARKLVAEKTDTIAIMYGQDYNGTWYLPGEYSYSTAMFRDARVSFDYAAGKVSSQPCSFEYIFSRHRHAEIWICTMMGNIKTMDEFLALNERYRHFDATQTGKVYIDRKRVNENGGNDYWESGLYRPDLLLKDIIKITRPELLPEYETSYWIELKRP,not soluble
10,MGSDKIHHHHHHMPLLDVRNLTIELDTPHGRVRALEKVSLTLNAGEIHGLVGESGSGRSLLARAILGIPGPNWTITADRMMWDGNNLMAMSSKERRNLMGSDMAMIFQDPSGSLDPAQTVGSQLMQAMPKNPNAYFWQKRRHARLTAQKWLHKVGIKNPRQVMSSYAWELSEGECQKVMIAMAVANQPRLLIADEPTSSMELSTQAQIFRLLSQLNQLQNVSILLISHELETLAQWCDHLSVLYCGQVMESGPTDEVIKQPYHPYTKALLDNMPDYSGSGGHKAIMPTLPGSAPALQHLPIGCRLGPRCPEAQKKCVNQPNLSHIKDRYFACHFPYHGETHNDDPTA,not soluble
11,MGSDKIHHHHHHMPQITIIVPVYNAERTLERCVRSIQAQTVVNWELLLIDDGSEDYSSKLCDEYAIQDSRIRVFHQVNGGASSARNVGLEYTKGEWVVFCDSDDWVDSNWLELFKNQIDNGTELIVQGFIPHGNLWQSRTGINFHGNVKTGILKLQEENILGFMCTKMYKREIIEQCGLRFDTELVLREDELFMLQYAEYISTIQCMEEGAYHYDMPDFSTKYGNIDLFNMFLKIYVVLKRIFSGEDNLLLQNYENDLTQSLFHSFVMRHDDRCKKLENYRKEVGKRVLGVKSLSQFSKYILAYVPSFQVAYLLLEAKAKIVKSMQ,not soluble
12,MGSDKIHHHHHHMPQLRDSGNHSTAPLDAHTKDEIQSFARIFGIETEYGVSVTGSDRPCDAGQTAMMMFQPIVAEARSTNTYIENGSRLYLDVGSHPEYATAEARDPMDALALDAAGELVMRDLALDAQRRLRSIQGAGSTVHVFKNNVDSAGHSFGCHENYLVRRFVPLKTIEQELLPFLITRQLFTGAGRMGEQGFQITQRADFLDEAVSSATTRSRPMVNTRDEPHADPDAFRRLHVIIGDSNRSQWATMMKLATTHLVLCVIEQAGREGKDSGFARFSFADASAANHKVSRDLTGVEASFDMADGTVMEGGAVAIQERYLEIVERFVGQHPEVCSSLPRTDVHEVIRRWRRVIEAFRSGVSETFADKVDWLAKRRLFDMLRNRAGGRLSVSKLEQLDMDYHDVANGALYASLCRRGAMRTLVNESQAHEAIDVPPHDTRAALRGRFIQSARSHNAQYSCDWTRLSLTSPNRMDVTLLDPFDAQPSDRFLTILEALQ,not soluble
13,MGSDKIHHHHHHMPQRLYTYPPLLRGRLLQRYKRFFADIELDSGETITAHCPNTGPMTGVCQMGNLVYVSKSDNPKRKLAYTWELIEVTDNEPTWVGVNTGLPNRVVQALLEQRCLPVLGDYGEVQREVPYGENSRIDFRLTGDRPIYVEVKNTTWTAGRLALFPDTVTTRGQKHLRELTAILLEARAVMLYFINRGDCTAFAPGDSADPTYGQLLRTGIAAGLEVYPCQFQISPEGIDFLGVAPLQL,not soluble
14,MGSDKIHHHHHHMPRSPSSQYLAIESLSRYAREERESALGIIRNVLQMSDIAPGRFNAAMQAVAMHGRIALHFHPDRFDSRGLTVAEGLLQDGRYRCQFETHISSGLLSPEIGGARDHWERQFFRELTTDIAARPKYGALDLLLAPNGPAPRFGSCYFLTKPEVLSRATFCFNDSYRNPRDKGTADAFEMVMAALLTESFERRYALGEHGLAPAKLVERLVSTLGEDIVMRFERGLSGNLDHYIEAQIHGPLSLAEDMEALVADPSFRGTEIEPLLRSIAERYQIALYWHSGLCLDVEHVVRDFRGAGMPSLAQRLAIDGNVTAYAIGVAAREVSRFPTRWRARGHKTEVLSELKWLWHLLVRYGAARDERETSFMLDESAPLQENVQAEPGGNDATCVQGTCKEEGFEASVTTEGAHTADAAAAVKDNSAS,not soluble
15,MGSDKIHHHHHHMPSETIKLTAKFKLKEIPNGLDVLFSTYREIVNFLISYAYENNITSFYRLKKETYKNLRKEYPELPSHYHYTAIDMATKIYRGYRKRRGKAKGKPVFKKEVIMLDDHLFKLDFEKRIVKLSTPSGRIELEFYPAKYHEKFKGWKVGQAWLVKTPKGLFINVVFSREVEIREPENFIGVDLNENNVTLCLPKGEFIQIITHEREIRTGYFVKRRKIQKNLRVGKKREELLEKYGSRERNRVDDLYHKLANKIVELAEKYGGIALEDLTEIRDSIRYSAELNGRLHRWSFRKLQRIIEYKAKLRGIKVIFVNPAYTSTLCPICGGKLSPNGHRVLKCKCGFEADRDVVGSWNVRLKALKMWGVTVPPESHPMKKGGWKVSRIDITQITADQNGYFMRRLRRALLLQ,not soluble
16,MGSDKIHHHHHHMPSIFEKYQLKQVINASGRMTALGVSTPRPEVIDAAMAGMNQYFEMKDLVNKTGEYIAKLLEVEGATVVSCASAGLAQSVAAVLVQDSDWLLENLHVTPIENNEIVLPKGHNVNFGAPVGTMVALGGGKLVEAGYANECSAAQLAAAITPRTAAILYIKSHHCVQKSMLSVEQAAVVARTHNLPLIVDAAAEEDLQCYYRVGADLVIYSGAKAIEGPTSGLVIGKTQYVEWVKRQSAGIGRAMKVGKEGIVGLTCAIELYLRAQKESGAEMVEKMAPFIDTLNTFNGVSARVVWDSAGRDIARTEIKFDEAVTGIATGELVDALKQGEYAIYFRGYKANEGIIEADVRSVDRAQLAIVARRIGEVINQEKQA,not soluble
17,MGSDKIHHHHHHMPTITAKIQIHVSDNQAESLKITTNAYRKACNWLSKHIFETKNLNQVNLNNLYYSDLRNQFRLKSQMAQSVMKTVIARYKSAKSNGHEWSLIDFKLAEYDLVWNRDYSLTKNQFSVNTLEGRLKLNYERKAMKKYFNSTWKFGTAKLVHKYKKWFLHIPMTKEYQTLDFADVNNIVGVDLGINFLATTYDSQSKTTFYNGNIVKHKRGKFKATRKQLQTRQTPSSRKKIKQIGSRENRYVTDVNHQITKALVEAYPRGTMFVLEDLTGVRSATEKVRVKNRYVSVSWAFYQFRQMLEYKAELNGQKVIVVDPKYTSQTCPKCGNIEKANRNKKLHTFKCKNCQYQSNDDRISAMNLHRKGIKHISVVTTGV,not soluble
18,MGSDKIHHHHHHMPTLPAYPLFREHSLLYLAHMGISKLKPSNSATTLLQLAREVLAIEAREVQALAGRLDQSFVNAVELILQCRGRVVVTGIGKSGHIGNKIAATLASTGTPAFFMHPAEASHGDLGMITRDDVVIALSNSGEADELLALLPPLKRIGTPIISISGNRHSTLSKAADIFLDAHVSQEACPLGLAPTASTTAALALGDALAVTLLDQRGFSREDFALAHPGGSIGRRLLLHVQDVMRSGDDIPAVSVSSSLKDGLLEMSRKGLGMTAVLDAADKPVGIFTDGDLRRAFEAGIDINGTRMADVMHAHPRSILPGQLAVDALALMEQYSISSLLVVDQQGNLVGALNMHDLLMAKVV,not soluble
